# In article PMC3461361:
# Target: Invasion plasmid antigen B (IpaB) (S. flexneri)
# Test: native gel or EMSA
substance,measurement,value
Invasion plasmid antigen B (IpaB) (natural protein),stoichiometry N,> 10
